# According to patent publication US20200270588A1, “GLUCOSYL TRANSFERASE POLYPEPTIDES AND METHODS OF USE” (Syngenta Participations AG, priority 2017, published 2020):
# Positions count from the first letter of the chain named. Numbers in names are those of the source.
# B1: A281C: bx9 SEQ ID NO:1 mutant (protein)
# chain: MASSRTGAGAGGRVVVFPFPFQGHFNPVMRLARALHARGLAITVFHSGALDPADYPADYRFVPVTVEADPKLLASEDIAAIVTTLNASCDAPFRARLSALLAAEGRDSVRCVFTDVSWNAVLTASSDLGVPALGMMTASAASLRDYMAYRTLIDKGYLPVKEERKEDPVPELPPYLVKDLLRVDTSDLEEFAELLARTVTAARRASGLIFNTFPLIETDTLAEIHKALSVPVFAVAPLNKLVPTATASLHGVVQADRGCLQWLDTQQPGSVLYVSFGSMACMDPHEFVELAWGLADSKRPFVWVVRPNLIRGFESGALPDGVEDEVRGRGIVVAWAPQEEVLAHPAVGGFLTHNGWNSTVEAISEGVPMVCCPRHGDQFGNMRYVCDVWKVGTELVGEQLERGQVKAAIDRLFGTKEGEEIKERMKEFKIAAAKGIGIGVDVDETASPRTDLTDLVDLIKSF
# modifications: Zea mays
# B2: A281K: bx9 SEQ ID NO:1 mutant (protein)
# chain: B1 chain with C281K
# modifications: Zea mays
# B3: T220G: bx9 SEQ ID NO:1 mutant (protein)
# chain: B1 chain with T220G, C281A
# modifications: Zea mays
# B4: A334Q: bx9 SEQ ID NO:1 mutant (protein)
# chain: B1 chain with C281A, A334Q
# modifications: Zea mays
# B5: F210M: bx9 SEQ ID NO:1 mutant (protein)
# chain: B1 chain with F210M, C281A
# modifications: Zea mays
# B6: T220S: bx9 SEQ ID NO:1 mutant (protein)
# chain: B1 chain with T220S, C281A
# modifications: Zea mays
# B7: A281M: bx9 SEQ ID NO:1 mutant (protein)
# chain: B1 chain with C281M
# modifications: Zea mays
# B8: A334V: bx9 SEQ ID NO:1 mutant (protein)
# chain: B1 chain with C281A, A334V
# modifications: Zea mays
# B9: T220V: bx9 SEQ ID NO:1 mutant (protein)
# chain: B1 chain with T220V, C281A
# modifications: Zea mays
# B10: T220A: bx9 SEQ ID NO:1 mutant (protein)
# chain: B1 chain with T220A, C281A
# modifications: Zea mays
# B11: A334S: bx9 SEQ ID NO:1 mutant (protein)
# chain: B1 chain with C281A, A334S
# modifications: Zea mays
# B12: T220E: bx9 SEQ ID NO:1 mutant (protein)
# chain: B1 chain with T220E, C281A
# modifications: Zea mays
# B13: T220C: bx9 SEQ ID NO:1 mutant (protein)
# chain: B1 chain with T220C, C281A
# modifications: Zea mays
# B14: A334L: bx9 SEQ ID NO:1 mutant (protein)
# chain: B1 chain with C281A, A334L
# modifications: Zea mays
# B15: A202F: bx9 SEQ ID NO:1 mutant (protein)
# chain: B1 chain with A202F, C281A
# modifications: Zea mays
# B16: T220I: bx9 SEQ ID NO:1 mutant (protein)
# chain: B1 chain with T220I, C281A
# modifications: Zea mays
# B17: A334N: bx9 SEQ ID NO:1 mutant (protein)
# chain: B1 chain with C281A, A334N
# modifications: Zea mays
# B18: A281R: bx9 SEQ ID NO:1 mutant (protein)
# chain: B1 chain with C281R
# modifications: Zea mays
# B19: T220N: bx9 SEQ ID NO:1 mutant (protein)
# chain: B1 chain with T220N, C281A
# modifications: Zea mays
# B20: T220Q: bx9 SEQ ID NO:1 mutant (protein)
# chain: B1 chain with T220Q, C281A
# modifications: Zea mays
# B21: T220K: bx9 SEQ ID NO:1 mutant (protein)
# chain: B1 chain with T220K, C281A
# modifications: Zea mays
# B22: T220D: bx9 SEQ ID NO:1 mutant (protein)
# chain: B1 chain with T220D, C281A
# modifications: Zea mays
# B23: A334R: bx9 SEQ ID NO:1 mutant (protein)
# chain: B1 chain with C281A, A334R
# modifications: Zea mays
# B24: A281Q: bx9 SEQ ID NO:1 mutant (protein)
# chain: B1 chain with C281Q
# modifications: Zea mays
# B25: T220M: bx9 SEQ ID NO:1 mutant (protein)
# chain: B1 chain with T220M, C281A
# modifications: Zea mays
# B26: T220Y: bx9 SEQ ID NO:1 mutant (protein)
# chain: B1 chain with T220Y, C281A
# modifications: Zea mays
# B27: F210W: bx9 SEQ ID NO:1 mutant (protein)
# chain: B1 chain with F210W, C281A
# modifications: Zea mays
# B28: T220L: bx9 SEQ ID NO:1 mutant (protein)
# chain: B1 chain with T220L, C281A
# modifications: Zea mays
# B29: T220R: bx9 SEQ ID NO:1 mutant (protein)
# chain: B1 chain with T220R, C281A
# modifications: Zea mays
# Assay: UDP luminescence plate assay of E. coli extracts, saturation mutants of SEQ ID NO: 1, herbicide V
# Format: biochemical, Zea mays
# Details: improvement factor relative to w/t bx9 = 1.0, rounded to nearest 0.5; extract activity basis; compound V
Molecule,Most Preferred amino acid substitutions and (IF) based on RLU/min/ul,Preferred amino acid substitutions and (IF) based on RLU/min/ul
B1,"C,Q(3.0)",–
B2,6.0,–
B3,–,"G,Q,D,V(1.0)"
B4,–,"S,Q,V,L(1.5)"
B5,–,"M,W(1.0)"
B6,"S,R(2.5)",–
B7,5.0,–
B8,–,"S,Q,V,L(1.5)"
B9,–,"G,Q,D,V(1.0)"
B10,–,"C,A,N,E,L,I,M(1.5)"
B11,–,"S,Q,V,L(1.5)"
B12,–,"C,A,N,E,L,I,M(1.5)"
B13,–,"C,A,N,E,L,I,M(1.5)"
B14,–,"S,Q,V,L(1.5)"
B15,–,"T,I,V,L,F(1.5)"
B16,–,"C,A,N,E,L,I,M(1.5)"
B17,–,N(1.0)
B18,5.0,–
B19,–,"C,A,N,E,L,I,M(1.5)"
B20,–,"G,Q,D,V(1.0)"
B21,3.0,–
B22,–,"G,Q,D,V(1.0)"
B23,"K,R(2.0)",–
B24,"C,Q(3.0)",–
B25,–,"C,A,N,E,L,I,M(1.5)"
B26,3.5,–
B27,–,"M,W(1.0)"
B28,–,"C,A,N,E,L,I,M(1.5)"
B29,"S,R(2.5)",–

# Assay: UDP luminescence plate assay of E. coli extracts, mutants of SEQ ID No: 1, 2 mM metribuzin
# Format: biochemical, Zea mays
# Details: 2 mM metribuzin
# In short: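 Extracts of E. coli BL21 DE3 expressing C-terminally His-tagged SEQ ID NO:1 variants incubated with 2 mM metribuzin; UDP formed read by UDP-Glo luminescence against a UDP standard curve, with optional 95 C stop. Mutants ranked by metribuzin/DMSO signal ratio and signal increase over wild-type bx9.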
row,Molecule,SIGNAL: metribuzin signal of mutant divided by metribuzin signal of w/t bx9
1,B11,0.98
2,B17,1.56
3,B23,1.94

# Same assay, conditions: 2 mM metribuzin; H24A null background 1.00E+05 not subtracted
row,Molecule,luminescence signal with metribuzin
1,B11,1.21E+05
2,B17,1.93E+05
3,B23,2.39E+05

# Same assay, conditions: 2 mM metribuzin; relative to bx9 w/t
row,Molecule,SIGNAL: metribuzin signal of mutant divided by the signal of w/t bx9
1,B1,1.58
2,B2,4.98
3,B4,1.22
4,B7,2.59
5,B8,1.57
6,B14,1.51
7,B18,3.90
8,B24,2.82

# Same assay, conditions: mutants of SEQ ID No: 1; DMSO in place of metribuzin (background UDP-glucose hydrolysis)
row,Molecule,luminescence signal in the DMSO control
1,B1,4.80E+05
2,B2,1.66E+06
3,B4,4.88E+05
4,B7,8.45E+05
5,B8,4.80E+05
6,B14,5.19E+05
7,B18,1.30E+06
8,B24,7.59E+05

# Same assay, conditions: mutants of SEQ ID No: 1 in E. coli extracts; 2 mM metribuzin; UDP luminescence
row,Molecule,luminescence signal observed with 2 mM metribuzin
1,B1,4.43E+05
2,B2,1.39E+06
3,B4,3.40E+05
4,B7,7.25E+05
5,B8,4.40E+05
6,B14,4.22E+05
7,B18,1.09E+06
8,B24,7.89E+05
